The target in experiment [1] is T1, Lymnaea stagnalis acetylcholine binding protein (AChBP) (Lymnaea stagnalis), P58154. Put plainly: stopped-flow fluorescence; Kd calculated from k-1/k1.
Experiment [2] deals with T1, Lymnaea stagnalis acetylcholine binding …. The experiment in a line: stopped-flow, intrinsic tryptophan fluorescence quenching of Lymnaea AChBP.
Experiment [3] has the same target.
Experiment [4] has the same target. Put plainly: stopped-flow spectrofluorimetry, excitation 280 nm, emission above 305 nm.
Experiment [5] has the same target. The source holds these as a separate data set.
The target is the same in experiment [6]. Put plainly: equilibrium titration, intrinsic tryptophan fluorescence of Lymnaea AChBP.
The target is the same in experiment [7]. The source holds these as a separate data set.
The target is the same in experiment [8]. The experiment in a line: ratio of Kd on Lymnaea AChBP to Kd on Aplysia AChBP.
For experiment [9], the target named is T2, Aplysia californica acetylcholine binding protein (AChBP) (Aplysia californica).
T2 chain: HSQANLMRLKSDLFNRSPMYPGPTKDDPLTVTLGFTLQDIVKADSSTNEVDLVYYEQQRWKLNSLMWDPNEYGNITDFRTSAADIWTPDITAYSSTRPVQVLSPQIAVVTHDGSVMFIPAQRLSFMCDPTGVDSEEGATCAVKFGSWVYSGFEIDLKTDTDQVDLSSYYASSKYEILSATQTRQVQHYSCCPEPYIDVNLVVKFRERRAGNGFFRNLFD

Several values for one entry are separate records, joined by “and”; a condition that tells them apart may be missing. Equal values may be shown once. Read-outs that look alike come from different tables or passages of the source.

T1 sequence (P58154 20-229): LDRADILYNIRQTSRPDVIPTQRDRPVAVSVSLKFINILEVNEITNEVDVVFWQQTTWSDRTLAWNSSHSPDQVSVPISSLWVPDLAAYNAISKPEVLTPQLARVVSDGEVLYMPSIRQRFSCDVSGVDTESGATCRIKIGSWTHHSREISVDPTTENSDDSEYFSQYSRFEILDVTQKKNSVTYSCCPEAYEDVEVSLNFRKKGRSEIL

What is called Kd is the free concentration of one partner at which half of the binding sites on the other are occupied at equilibrium, for simple one-to-one binding. One may read the koff as the rate constant with which the complex falls apart. By kon is commonly meant the rate constant with which the complex forms. A low value points to slower complex formation. GGKPDLRPCHPPCHYIPRPKPR (modifications not checked) [Waglerin-1, P24335 3-24]: in [1], the Kd was 6500 nM. In [2], this molecule yielded a koff of 31 s⁻¹ and a kon of 4.8e+06 M⁻¹ s⁻¹.

B1: α-bungarotoxin, P60615 22-95 (peptide)
chain: IVCHTTATSPISAVTCPPGENLCYRKMWCDAFCSSRGKVVELGCAATCPSKKPYEEVTCCSTDKCNPHPKQRPG
modifications: not checked
Consider B1, for which the Kd in experiment [1] and in [3] was 1.8 nM in each case. Also, the figures for the kon in [4] and in experiment [2] were 900000 M⁻¹ s⁻¹ and 970000 M⁻¹ s⁻¹, respectively. For the same molecule, the koff in experiment [2] was determined as 0.0017 s⁻¹; in experiment [5] it was 0.001 s⁻¹. Moreover, the percent quenching of the unliganded receptor fluorescence in [6] is 15% and 20%. The molecule further returned a fold slower rate of association than epibatidine in experiment [7] of 200 fold. The molecule further had a k2 (unimolecular step of association) in [7] of 0.34 s⁻¹. In addition, the Kd Ratio L/A in experiment [8] was found to be 0.0071. In addition, in experiment [9], the fold lower affinity than for L-AChBP was determined as 100 fold.

B2: α-Cobratoxin, P01391 1-71 (peptide)
chain: IRCFITPDITSKDCPNGHVCYTKTWCDAFCSIRGKRVDLGCAATCPTVKTGVDIQCCSTDNCNPFPTRKRP
modifications: not checked
On to B2, for which the Kd in experiment [1] is 3.2 nM. Also, in [2], the koff came to 0.011 s⁻¹ and the kon stood at 3.3e+06 M⁻¹ s⁻¹.

Values taken from patent US20050143285A1.
